Source: article PMC6276879 (The EMBO Journal, 2018)

Target: T1, phosphorylated ubiquitin (UniProt P0CG48 1-76, phosphorylated by PINK1 (pUb); the residue is not given)
T1 construct: ubiquitin, phosphorylated by PINK1 (pUb); also called pUb; phospho-ubiquitin; source: E. coli BL21(DE3)CodonPlus-RIL; phosphorylated with Pediculus humanus PINK1, purified (Superdex 75)
Experiment: SEC; 1.5-fold excess pUb over R0RBR in 20 mM Tris, 75 mM NaCl, 250 uM TCEP, pH 8; 1:1 complex purified on Superdex 75 10/300
Settings: both partners purified

- binding result: binds
B1: R0RBR parkin (141-465) (domain or fragment, human, UniProt O60260 141-465, looked up)
chain: SIYNSFYVYCKGPCQRVQPGKLRVQCSTCRQATLTLTQGPSCWDDVLIPNRMSGECQSPHCPGTSAEFFFKCGAHPTSDKETSVALHLIATNSRNITCITCTDVRSPVLVFQCNSRHVICLDCFHLYCVTRLNDRQFVHDPQLGYSLPCVAGCPNSLIKELHHFRILGEEQYNRYQQYGAEECVLQMGGVLCPRPGCGAGLLPEPDQRKVTCEGGNGLGCGFAFCRECKEAYHEGECSAVFEASGTTTQAYRVDERAAEQARWEAASKETIKKTTKPCPRCHVPVEKNGGCMHMKCPQPQCRLEWCWNCGCEWNRVCMGDHWFDV
notes: parkin, human, residues 141-465 (R0RBR: RING0-RING1-IBR-RING2(Rcat)); also called R0RBR C-terminal region of parkin; source: E. coli BL21(DE3), purified (HisTrap, Ulp1 cleavage, HisTrap, Superdex 75); not shown: His-smt3, N-terminal, cleaved
